The record followed here is a protein production outcome set (Wang et al. 2014).

The data set can be described thus: label from the status in PepcDB records.

As for “MSDFVNGFWSYFIGIIAIGGIVWCVWLLYSQRRWLSTRPAGGVVEDTGHVWDGDLTELNNPVPRWWTWMYLLTCVFALGYLVLFPGVGSYQGTLGYTSVGEVKQKQAELAERVKPVYERFGGMTPEQLVADAPAREIGQRLFLNTCAQCHGSDAKGSTSFPNLTDGDWLYGGTPEIIAETIAKGRHGVMPPWKGVIDPRMAGDIAHYVRSLSGLAVDPVRVFRGKREFANYCVACHGVDAKGNQALGAPNLTDDVWLYGSSEASIVRTILDGRDNRMPAHEEVLTPEQIKLLSAWVWGLSNQAPAKAAEAAR”, the protein production result was “failed”. For “MSDGIPFAGEPADSHEAIMRATFRALREYGYAGLSIQRIADEADLSKSTFYHHFDGKEDLLLSFQEFILTEFNRIFQIESTGDPEQDIKTFVSLILDDFPDCVETPTKNAVLGSYVEMRAQAVQNPDFREKFTETDELFARQLVQIIEDGIEQGVFADVDPDTVSRFMITILDGVILQSATRNDNPVAEVRDTIDEYIEETLILNT”, the protein production result is given as “failed”. As to “MSDHEVTGGVSLKERVAIVLVEPQSPGNVGMVCRAMKNMGLGELRIVKGCRLDHPEALKFAVSARDLLERARVFESLEDALSDTELSVATTRRHGKYRQEIFSPKEIVSKFAANLAGNRAALVFGREDNGLTTDELSLCRWHATIPSSEEYGSLNLAQAVMVFCYELFTSLGSRTVGGEDRPLAGSAETEPLFEHMERTLMRIGYLNPQNPAHLMRSLRRIFARSELDSREVAILRGMMTQIDWAADQFKGKKGA”, the protein production entry is “failed”.

For “MSDHFSIIKFDIGNSTMNAERKFLFACLIFALAIYAIHAFGLFDLLTDLPHLQTLIRQSGLFGYSLYILLFIIATLFLLPGSILVIAGGIVFGPFLGTLLSLIAATLASSCSFLLARWMGRDLLLKYVGHSHTFQAIEKGIARNGIDFLILTRLIPLFPYNIQNYAYGLTTIAFWPYTLISALTTLPGIVIYTVMASDLANEGITLRFILQLCLAGLALFILVQLAKLYARHKHVDLSASRRNPLTHPKNEG”, the protein production entry is “failed”. As for “MSDHKAVHSVQAKAEGKTLVMERSFEAPRELVFKAFSGSVHLESWWGPKGWQTANSRFEFQPDGVWLYCMECRDQNQGEFYGRKSCGKAVFQEIAAPEKIVYTDMFTDEEGNVVPGMPEILNEVYFQERDVGTKLITRSHFSSPKELQQLLDKGMVEGFSSQLERLEDYLKAIR”, the entry is “failed”; as for “MSDIRMRADIAADGLTDRPPDRLADEPAEELSHGLLEGLSKEPADELADSPFLLDEPPDYFEDFLLFIFTLMKTTSCLGVAKTTHKLFLCVEPTKEKVAFSDKATSFSAPIEILLFNLDPPSIQGYLRRPLSLKDLHISSARIIDAPLLKPNG”, “failed”. As for “MSDKFHILLLNGPNLNLLGTREPEKYGYTTLAEIVSQLEIQAQGMDVALSHLQSNAEHALIDSIHQARGNTDFILINPAAFTHTSVALRDALLGVQIPFIEIHLSNVHAREPFRHHSYLSDIAVGVICGLGADGYNFALQAAVNRLSKSN”, the protein production entry is “not failed”. As for “MSDNNDRMYELEYPSPEVSGQTAGGPTLIVALQGYADAGHAVESSSSHLMDALDHRLIASFNNDELIDYRSRRPVVVIEHNEVTSMDELNLGLHVVRDNDNKPFLMLSGPEPDLRWGDFSNAVVDLVEKFGVENTICLYAAPMTVPHTRPTVVTAHGNSTDRLKDQVSLDTRMTVPGSASLMLEKLLKDKGKNVSGYTVHVPHYVSASPYPAATLKLLQSIADSADLNLPLLALERDAEKVHRQLMEQTEESSEIQRVVGALEQQYDSE”, the entry is “not failed”. On to “MSDPAEVPTASPLLETVGLACERDWRMLFERLDLRLAAGEMLQVVGPNGSGKTSLLRLLSGLMQPTAGEVRLNGRPLAEQRGELARSLLWIGHAAGIKGLLSAEENLTWLCALHQPASREAIWQALADVGLRGFEDVPCHTLSAGQQRRVALARLYLDAPPLWILDEPFTALDKQGVAQLETHLAGHCQRGGMVVLTTHHSLQQVPAGYRELDLGALKAASGATVEPALGDPA”, for which the protein production entry is on record as “failed”. As for “MSDRDSWISNLGFVLAAVGGAAGLGNIWRFPWLTAGNGGSAFLIVYLLVVVGIGVPGLLAEFVLGRCGRQTPTAALRSLTGSRWGSWLGAFNVLTTLVILSFYSVVGGWILRYTLVSPVGTYFGQPQQYFGAMSFGLEAVAFHLLFLGIVAAIVFFGISNGIERVSKVMLPGVVIILLGLAVWTATQPGTAAGYAFYLSFDAEYLAANFLSVIGPAAGQALFTLSLGAGVMLTYASYLDDNASLPRDTLVIAVSNTFIGVLAGLVVIPLLFSQGVDPGQGGPGALFVALATAFATLPGGELVATAFFVTVLMAAVTSGISLLETPVATLVDSFGVPRRRATVLVSVLLAATGSGLALTSSVFQFVSGTLADLMLTVGLFAFTVIVGWLLRGDALAEFRAGTARFEWLAKPWLLTVSWVLPVVVLFLLTNTLASLAGISVGLGGRVIIAVIGTVALAVVVRNGSRTDRLSSH”, the entry is “failed”. Regarding “MSDRIASEKLRSKLMSADEAAQFVNHGDKVGFSGFTGAGYPKALPTAIANRAKEAHGAGNDYAIDLFTGASTAPDCDGVLAEADAIRWRMPYASDPIMRNKINSGSMGYSDIHLSHSGQQVEEGFFGQLNVAVIEITRITEEGYIIPSSSVGNNVEWLNAAEKVILEVNSWQSEDLEGMHDIWSVPALPNRIAVPINKPGDRIGKTYIEFDTDKVVAVVETNTADRNAPFKPVDDISKKIAGNFLDFLESEVAAGRLSYDGYIMQSGVGNVPNAVMAGLLESKFENIQAYTEVIQDGMVDLIDAGKMTVASATSFSLSPEYAEKMNNEAKRYRESIILRPQQISNHPEVIRRVGLIATNGLIEADIYGNVNSTNVSGSRVMNGIGGSGDFTRNGYISSFITPSEAKGGAISAIVPFASHIDHTEHDVMVVISEYGYADLRGLAPRERVAKMIGLAHPDYRPLLEEYYARATSGDNKYMQTPHDLATAFDFHINLAKNGSMKA”, the protein production result is reported as “not failed”. Turning to “MSDSAEMQQPELLLKSMNKLNGYHPQLIIPKKTLFKCDLDDKQSRLQVSSMHMENSGFLTEDEKRTIEAQKMKKRRTAGLRVAFIDPESQQYVLELHKWTKSYAFVKGWNKVVDKNDKTFKVGDVFSLWVFRCGGVNPVHDGVNLSGGHADSVVDGLEQGSLCFVLVPAKVSVHDGNLPQDSGHDGHNDNLPQDSVEPSSFFDESYELNHLFFDQEDSQGYLPDEDEDFGFNDDGSIRDSGHYQ”, the protein production result is “failed”. As for “MSDSATEYDKLFIGGKWTKPSTSDVIEVRCPATGEYVGKVPMAAAADVDAAVAAARAAFDNGPWPSTPPHERAAVIAAAVKMLAERKDLFTKLLAAETGQPPTIIETMHWMGSMGAMNYFAGAADKVTWTETRTGSYGQSIVSREPVGVVGAIVAWNVPLFLAVNKIAPALLAGCTIVLKPAAETPLTANALAEVFAEVGLPEGVLSVVPGGIETGQALTSNPDIDMFTFTGSSAVGREVGRRAAEMLKPCTLELGGKSAAIILEDVDLAAAIPMMVFSGVMNAGQGCVNQTRILAPRSRYDEIVAAVTNFVTALPVGPPSDPAAQIGPLISEKQRTRVEGYIAKGIEEGARLVCGGGRPEGLDNGFFIQPTVFADVDNKMTIAQEEIFGPVLAIIPYDTEEDAIAIANDSVYGLAGSVWTTDVPKGIKISQQIRTGTYGINWYAFDPGSPFGGYKNSGIGRENGPEGVEHFTQQKSVLLPMGYTVA”, the entry is “not failed”; as for “MSDSKSHDPNQMTGAAMIVRAMIDHGVEHIFGYPGGSVLPIYDELFQNSEKLQHILVRHEQGAGHAAEGYARSTGKPGVVLVTSGPGATNMVTPLADALMDSIPIVCITGQVPTHLIGNDAFQECDTVGITRPCTKHNWLVRDIKDLARVLHEAFYVATSGRPGPVVVDVPKDVQFATGTYHPPRKSDVHVSYTPRLKGDPGQIRKAVALLASAKKPVIYSGGGVVNSGEEAWKLLRELVEVTDFPITSTLMGLGAYPASGKNWLGMLGMHGTYESNMTMHDCDVMLCIGARFDDRITGRTDAFSPNSKKIHIDIDPSSINKNIRVDVPIIGDVAHVLADLLAAFKAEAKKADTKAWWLQIAAWRGRNSLAYKKNNDVILPQYAIERLYAATRGRDTYITTEVGQHQMWAAQFYGFERPRRWMTSGGLGTMGYGLPAALGVQVAHPDSLVIDIAGDASVQMTMQEMATAVQYELPIKIFILNNQYMGMVRQWQQLLHGNRLSHSYTEAMPDFVKLADAYGGVGMQVFKPSDLDGAIQDMIKVKKPVLFDCRVASLENCFPMIPSGKAHNEMLLPSEANDETTAAAFAGGGALV”, “failed”. As for “MSDSLFLSLAKFDVILSGSTNSNILHDVMGQVIDRSEIQDLNANNKPTKKIDFHLRDQHDTRLACILWGKYAEIVDKACQESTDGIVVCLIRFAKINLYNDTRSVSNFFDVSQVFVDPTLAELDLFKQSIP”, the entry is “failed”; as for “MSDTVLTGLLDTVWQQFGRGTKDRHHPARHPTLATIGTDGPDLRTLVLRAASHAEATLEFHTDAASPKVAHIRRDARVAIHIWIPKASLQVRAKAIAKILPGDPNLFAQLPEAARMNYQGPVPGTPLPAEPDATPNRFTRLICHLSEIDVLHLTTPHQRAVYTAPDWRGIWVSP”, “not failed”; as for “MSDVSTQSPKVGFVSLGCPKALVDSEQIITQLRAEGYEISGTYGGADLVVVNTCGFIDEAVQESLDAIGEALAENGKVIVTGCLGAKKDAAGQDIITSVHPKVLAVTGPHALGEVMEAVHTHLPKPHDPFIDLVPPQGIKLTPKHYAYLKISEGCNHRCSFCIIPSMRGDLVSRPVAEVMLEAENLLKAGVKELLVISQDTSAYGVDVKFRTGFWNGRPLKTRMTELVGALGELAAQYGAWVRLHYVYPYPSVDEVMPLMAEGKVLPYLDVPLQHAHPEVLKRMKRPANAEKTLDRIRAWREVCPELTIRSTFIAGFPGETEEEFQTLLDFIAEAELDRVGCFAYSPVEGATANDLPGALPDEVREERRARFMEVAERVSARRLQRKVGKTLRVLVDEVNQDGGIGRSSADAPEIDGLVYIAPPSKPYKRYKAGDFVSVKITGADGHDLWGEVLEHHHHHH”, “failed”. As for “MSDVTVVAMVTNAYPVNEFQRSSGGTGKVRNIMLEDGTGSIRMALWDSDAETEISEGDVVKLIHGYAKESGEYMDLSTGRFGRLEHHHHHH”, the entry is “failed”; as for “MSEAEAKLWQHLRAGRLNGYKFRRQQPMGNYIVDFMCVTPKLIVEADGGQHAEQAVYDHARTVYLNSLGFTVLRFWNHEILQQTNDVLAEILRVLQELEKQ”, “not failed”.

“MSEAVPSVVAIDIGTHKVSVLIGKVHAPDNIQVIGMATARNRGMNKGKIVSLDKVISAIKNAVAEAENMAECRVHTAWVSIPTTELQSFYASGRIPIAKADHTITTNEVVRALELAKASHVTPDYYLASAVPLGFELDDSSEWVQNPINMSAHSMTGHYQLMMMPISIMQNLDRAMKGASIGVEKMVVSCLATAEASLLKDEKEYGVCLLDIGAGTTNIAVYLDGRLALARTLQRGGENVTRDIAAVLQTTTEEAERIKILHGCVDLSAIKPDQMIQVQAIDGPQTISRIELAEIIIARYEEILGQVRDELERSGAIHGLYHGVVLTGDACQIEGMISLARRILGVSAHLGNPPLQVYADDQHQASIRRSMYATAAGLLMFSQSELQDTVEDSEEASQRSLWNRVANGWNTLNTKLKAIF”: the protein production entry was “failed”. As for “MSEAYFRVESGALGPEENFLSLDDILMSHEKLPVRTETAMPRLGAFFLERSAGAETDNAVPQGSKLELPLWLAKGLFDNKRRILSVELPKIYQEGWRTVFSADPNVVDLHKMGPHFYGFGSQLLHFDSPENADISQSLLQTFIGRFRRIMDSSQNAYNEDTSALVARLDEMERGLFQTGQKGLNDFQCWEKGQASQITASNLVQNYKKRKFTDMED”, the entry is “failed”; as for “MSEGMMLTTLDRLTIYAVLCFISLCALGLGETTQAQLMPVLGTAASIFGIWLEMRSEQDTTQQPHR”, “failed”.
